The results in this text go back to PMC12016517, “Transcriptional regulation of two redundant 3-bromo-4-hydroxybenzoate catabolic operons via two different regulatory modes in Pigmentiphaga kullae strain H8” (Applied and Environmental Microbiology, 2025).

“And” between values parts separate entries of the source, which are not always exact repeats. Equal entries are not always repeated.

Data set [1] concerns BhbR2 (MarR-family regulator) (Pigmentiphaga kullae H8). Put plainly: SPR. The following applies: EMSA BhbR1: 100 mM Tris-HCl pH 8.0, 50 mM KCl, 5% glycerol, 1 mM DTT, BhbR2: 50 mM Tris-HCl pH 8.0, 30 mM KCl, 1 mM EDTA, 5 mM DTT, 25 C, 30 min. ….
In data set [2] the target is MarR-family transcription factor BhbR2 (Pigmentiphaga kullae strain H8). Put plainly: SEC; gel filtration on Superose 6 10/300 GL, 25°C, PBS pH 7.8, 0.4 mL/min, calibrated with protein molecular weight markers; oligomeric state of the purified regulator.
The test system of data set [3] is T1, BhbR1 (LysR-type regulator) (Pigmentiphaga kullae H8), ORF:3710a82b.
T1 sequence: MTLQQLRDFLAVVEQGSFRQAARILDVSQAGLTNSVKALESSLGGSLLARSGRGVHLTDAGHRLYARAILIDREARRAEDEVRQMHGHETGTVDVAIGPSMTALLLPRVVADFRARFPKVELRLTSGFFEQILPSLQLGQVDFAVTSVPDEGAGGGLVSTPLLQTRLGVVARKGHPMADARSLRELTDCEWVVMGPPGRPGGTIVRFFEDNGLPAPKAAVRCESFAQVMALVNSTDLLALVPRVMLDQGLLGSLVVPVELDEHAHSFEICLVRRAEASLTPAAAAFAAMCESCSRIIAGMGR
Briefly: EMSA. The following applies: EMSA BhbR1: 100 mM Tris-HCl pH 8.0, 50 mM KCl, 5% glycerol, 1 mM DTT, BhbR2: 50 mM Tris-HCl pH 8.0, 30 mM KCl, 1 mM EDTA, 5 mM DTT, 25 C, 30 min. ….

For data set [4], the system named is T2, BhbR2 (MarR-family regulator) (Pigmentiphaga kullae H8), ORF:e62c0bd9.
T2 sequence: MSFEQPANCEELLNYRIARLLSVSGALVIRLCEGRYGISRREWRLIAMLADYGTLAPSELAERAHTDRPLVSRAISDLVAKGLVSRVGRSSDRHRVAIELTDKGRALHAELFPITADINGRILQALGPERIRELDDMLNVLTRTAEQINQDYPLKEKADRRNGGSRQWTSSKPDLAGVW
Briefly: EMSA. Particulars: EMSA BhbR1: 100 mM Tris-HCl pH 8.0, 50 mM KCl, 5% glycerol, 1 mM DTT, BhbR2: 50 mM Tris-HCl pH 8.0, 30 mM KCl, 1 mM EDTA, 5 mM DTT, 25 C, 30 min. ….

Data set [5] has as its system BhbR1 (LysR-type regulator) (Pigmentiphaga kullae H8). Put plainly: SPR. The following applies: EMSA BhbR1: 100 mM Tris-HCl pH 8.0, 50 mM KCl, 5% glycerol, 1 mM DTT, BhbR2: 50 mM Tris-HCl pH 8.0, 30 mM KCl, 1 mM EDTA, 5 mM DTT, 25 C, 30 min. ….
Data set [6] relates to T1, BhbR1 (LysR-type regulator) (Pigmentiphaga kullae H8), ORF:3710a82b. Put plainly: SPR. Particulars: EMSA BhbR1: 100 mM Tris-HCl pH 8.0, 50 mM KCl, 5% glycerol, 1 mM DTT, BhbR2: 50 mM Tris-HCl pH 8.0, 30 mM KCl, 1 mM EDTA, 5 mM DTT, 25 C, 30 min. ….
The target in data set [7] is T3, BhbR1 (LysR-type transcriptional regulator).
T3 construct: C-terminal His-tagged BhbR1 (302 amino acids), expressed in E. coli BL21(DE3)
Put plainly: SPR (Biacore T200, protein immobilized on CM7 chip, steady-state affinity). The class given is binding, Pigmentiphaga kullae.

The target of data set [8] is T4, BhbR2 (MarR-family transcription factor).
T4 construct: C-terminal His-tagged BhbR2 (179 amino acids), expressed in E. coli BL21(DE3)
Described as above. The class given is binding, Pigmentiphaga kullae.

Data set [9] concerns the target LysR-type transcriptional regulator BhbR1 (Pigmentiphaga kullae strain H8). Put plainly: SEC; gel filtration on Superose 6 10/300 GL, 25°C, PBS pH 7.8, 0.4 mL/min, calibrated with protein molecular weight markers; oligomeric state of the purified regulator.
Data set [10] deals with T2, BhbR2 (MarR-family regulator) (Pigmentiphaga kullae H8), ORF:e62c0bd9. Put plainly: SPR. Particulars: EMSA BhbR1: 100 mM Tris-HCl pH 8.0, 50 mM KCl, 5% glycerol, 1 mM DTT, BhbR2: 50 mM Tris-HCl pH 8.0, 30 mM KCl, 1 mM EDTA, 5 mM DTT, 25 C, 30 min. ….

Take FpcaA2: the Kd came out at 0.259 µM in data set [1] (5 uM 3-Br-4-HB) and 0.397 µM in data set [1] (no inducer).

“MarR-family transcription factor BhbR2 (natural protein)”: the stoichiometry N in data set [2] is 2.

Turning to “TAATCCGACATCGGCCGCTCCAATAGTGAGAGGTCTTGCGATCCCCCCCTTTCCCCCGTAGGGCGTATGCGGTATTAGCTACGCTTTCGCGTAGTTATCCCCCGCTACTGGGCACGTTCCGATGCATTACTCACCCGTTCGCCACTCGCCGC (double strand) [Pb16S]”, the binding entry in [3] and in [4] was “no binding” in each case.

On to Fphbh1 (Fpbhb1), for which the Kd in data set [5] (5 uM 3-Br-4-HB) was 0.0012 µM; in [5] (no inducer), 0.0007 µM.

As to “GAACTCGAGGTGCTGTCGATTTGTGCCATGTTGATCTCCTTCATGGACGCCGGCGGCTTCCACGCCTGCGTCCGGGGACGAGAAACTGCGGAAGCGTCGGGATACCAGCAAGGAACGTGCCCCGTGATCCGCGGTTGCTGATAGCAAACCGTTATCGAGATAAGGAAAAACTGGCTTTTCGCTGTGCGCGTGGATCGTGATACTGCCGCCGGGCCTGGATGAACGGGCCCGGCAACGGAACTACGACCCACGACTAGTTTC (double strand) [PbR1 (Pphbh1 promoter probe, EMSA)]”, the binding result in [3] is listed as “binds”.

With “ACCAGCAAGGAACGTGCCCCGTGATCCGCGGTTGCTGATAGCAAACCGTTATCGAGATAAGGAAAAACTGGCTTTTCGCTGTGCGCGTGGATCGTGATACTGCCGCCGGGCCTGGATGAACGGGCCCGGCAACGGAACTACGAC (double strand) [Fphbh1 (Fpbhb1)]”, the Kd in data set [6] was 0.0007 µM and 0.0012 µM.

In the case of `O=C(O)c1ccc(O)c(Br)c1` [3-Br-4-HB, 3-bromo-4-hydroxybenzoate], the results for the Kd in data set [7] and in [8] were 2.2 µM and 2.1 µM, respectively.

In data set [9], “LysR-type transcriptional regulator BhbR1 (natural protein)” came in with a stoichiometry N of 4.

Consider “GAACTCGAGTGATGCCGTAGCGGCCTTCGCACAACCGGATCACCAGCGCCCCGCTGACCGACAGCAGCCTGGCTATCCGGTAGTTCAGGAGTTCCTCGCAATTTGCGGGCTGCTCGAAGGACATGGCTGCTCCTGTGCCGACGGCGGTTGATTAGAACAATCAAGGACATGAAAGCTAGAGTCATTCTCCATAAAAAGCCCAGCAGCCGCAACGCCATACGCCGGCGCGGCCCTGGTCGTTTTCCCTCTACCCAAGGAGCATTGCCCACTAGTTTC (double strand) [PbR2 (PpcaA2 promoter probe, EMSA)]”, for which the binding entry in [4] is “binds”.

On to “GGGCAATGCTCCTTGGGTAGAGGGAAAACGACCAGGGCCGCGCCGGCGTATGGCGTTGCGGCTGCTGGGCTTTTTATGGAGAATGACTCTAGCTTTCATGTCCTTGATTGTTCTAATCAACCGCCGTCGGCACAGGAGCAGCCATGTCCTTCG (double strand) [FpcaA2]”, for which, in data set [10], the Kd is 0.397 µM and 0.259 µM.
